Results taken from patent publication US20070128190A1 (GLENMARK PHARMACEUTICALS S A, published 2007).
Numbering of substitutions follows the chain as printed. In names and notes the source's numbering stands. Where two headings read alike, the source gives them in different places.

Experiments:
[1] = target: T1, human platelet α2β1 integrin (immobilized on microtiter plates) (human, UniProt P17301 30-1181; P05556 21-798); assay: competition with Eu-TMC-2206 on human platelet α2β1-coated plate
T1 construct: plates custom-coated with human platelet α2β1 by GTI Inc; also called immobilized α2β1 integrin; α2β1-coated plates
T1 sequence (P17301 30-1181 E534K limits assumed, chain 1 of 2): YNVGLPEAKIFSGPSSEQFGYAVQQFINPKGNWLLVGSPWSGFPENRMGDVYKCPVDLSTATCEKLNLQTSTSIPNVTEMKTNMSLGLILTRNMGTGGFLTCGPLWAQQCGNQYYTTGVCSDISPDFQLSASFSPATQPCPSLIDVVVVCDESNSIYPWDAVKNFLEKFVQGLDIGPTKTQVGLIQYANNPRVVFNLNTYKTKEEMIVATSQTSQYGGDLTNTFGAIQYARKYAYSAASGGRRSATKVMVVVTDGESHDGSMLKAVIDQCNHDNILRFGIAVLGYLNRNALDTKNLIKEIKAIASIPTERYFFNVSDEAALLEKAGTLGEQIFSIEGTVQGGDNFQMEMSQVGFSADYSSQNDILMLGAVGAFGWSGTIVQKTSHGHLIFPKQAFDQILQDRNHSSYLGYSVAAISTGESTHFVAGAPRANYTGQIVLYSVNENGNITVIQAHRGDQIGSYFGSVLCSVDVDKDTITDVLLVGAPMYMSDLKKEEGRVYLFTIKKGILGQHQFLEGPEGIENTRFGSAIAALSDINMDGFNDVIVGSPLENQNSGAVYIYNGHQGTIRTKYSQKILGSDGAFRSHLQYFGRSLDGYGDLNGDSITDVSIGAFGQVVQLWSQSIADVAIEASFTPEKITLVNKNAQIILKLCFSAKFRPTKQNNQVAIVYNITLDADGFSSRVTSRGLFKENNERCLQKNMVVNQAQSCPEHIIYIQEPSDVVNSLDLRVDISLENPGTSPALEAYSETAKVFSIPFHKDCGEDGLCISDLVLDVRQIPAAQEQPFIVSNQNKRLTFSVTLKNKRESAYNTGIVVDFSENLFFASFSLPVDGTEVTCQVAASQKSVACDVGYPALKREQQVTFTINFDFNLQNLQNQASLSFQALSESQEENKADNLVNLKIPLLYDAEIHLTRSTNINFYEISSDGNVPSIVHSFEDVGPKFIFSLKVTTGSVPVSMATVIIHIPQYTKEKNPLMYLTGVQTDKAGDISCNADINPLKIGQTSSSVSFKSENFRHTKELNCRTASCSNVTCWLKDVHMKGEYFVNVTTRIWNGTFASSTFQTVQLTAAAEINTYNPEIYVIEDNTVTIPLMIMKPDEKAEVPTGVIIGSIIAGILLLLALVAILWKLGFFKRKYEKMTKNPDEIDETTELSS
T1 sequence (P05556 21-798 limits assumed, chain 2 of 2): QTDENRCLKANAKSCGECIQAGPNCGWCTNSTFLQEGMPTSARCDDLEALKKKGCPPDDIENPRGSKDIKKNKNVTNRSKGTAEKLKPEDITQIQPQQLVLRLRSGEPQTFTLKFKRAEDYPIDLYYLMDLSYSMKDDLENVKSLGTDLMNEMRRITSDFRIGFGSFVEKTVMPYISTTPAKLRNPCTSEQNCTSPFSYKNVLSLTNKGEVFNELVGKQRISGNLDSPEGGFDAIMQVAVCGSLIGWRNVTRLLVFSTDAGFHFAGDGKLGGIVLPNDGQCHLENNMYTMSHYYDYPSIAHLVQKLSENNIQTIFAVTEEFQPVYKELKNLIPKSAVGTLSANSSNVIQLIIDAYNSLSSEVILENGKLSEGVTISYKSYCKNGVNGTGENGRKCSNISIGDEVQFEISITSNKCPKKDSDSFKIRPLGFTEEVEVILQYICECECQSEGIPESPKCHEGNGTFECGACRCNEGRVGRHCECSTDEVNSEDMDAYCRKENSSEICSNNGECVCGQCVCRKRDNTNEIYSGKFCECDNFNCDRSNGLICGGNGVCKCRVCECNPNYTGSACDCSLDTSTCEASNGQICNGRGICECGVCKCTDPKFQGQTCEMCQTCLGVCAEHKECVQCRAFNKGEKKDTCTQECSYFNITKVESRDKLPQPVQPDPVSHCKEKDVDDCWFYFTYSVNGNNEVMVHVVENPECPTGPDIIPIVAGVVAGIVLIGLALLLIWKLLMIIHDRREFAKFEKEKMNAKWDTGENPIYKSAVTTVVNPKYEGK

[2] = target: T1, human platelet α2β1 integrin …; assay: competition with Eu-TMC-2206 on human platelet α2β1-coated plate, Cheng-Prusoff
Protocol: Each labeled antibody mixture was applied to a separate PD-10 column (GE Biosciences, Piscataway, N.J.) pre-equilibrated with Running Buffer (50 mM Tris, pH 7.4 and 138 mM NaCl). Fractions (0.5 mL) were collected and assayed for total protein (Bradford reagent; Bio-Rad Laboratories, Hercules, Calif.) using a SpectraMax 384 absorbance plate reader and for europium after 1:10.000 dilution in DELFIA Enhancement Solution (Perkin-Elmer) by time-resolved fluorescence (TRF) using a Victor2 multi-label plate reader (Perkin Elmer). The fractions that were positive for both protein and Eu label were pooled and applied to new PD-10 columns and samples collected and assayed for total protein and for europium content by TRF calibrated against a europium standard solution (Perkin-Elmer) to calculate the fluor: protein ratio. […] After incubating the sealed plates for 1 hr at 37° C. to allow binding to reach equilibrium, 2 μL samples were transferred from each well into a fresh well containing DELFIA Enhancement Solution (100 μL/well; Perkin-Elmer) for the measurement of free (unbound) label. […] The plate was shaken (Titer Plate Shaker speed setting of 5 for 5 minutes at room temperature) and time-resolved fluorescent (TRF) intensities were read using a Victor2 multi-label plate reader (Perkin-Elmer Wallac, Boston, Mas.).

[3] = target: human α2 integrin with endogenous hamster β1 on CHO cells (human; hamster); assay: cell-based or functional assay
Chain of human α2 integrin with endogenous hamster β1 on CHO cells (human; hamster) (P17301 30-1181 E534K): as the sequence (P17301 30-1181 E534K limits assumed, chain 1 of 2) above

[4] = target: T1, human platelet α2β1 integrin …; assay: competition with Eu-TMC-2206 on human platelet α2β1-coated plate; remark: listed apart in the source
Protocol: Each labeled antibody mixture was applied to a separate PD-10 column (GE Biosciences, Piscataway, N.J.) pre-equilibrated with Running Buffer (50 mM Tris, pH 7.4 and 138 mM NaCl). Fractions (0.5 mL) were collected and assayed for total protein (Bradford reagent; Bio-Rad Laboratories, Hercules, Calif.) using a SpectraMax 384 absorbance plate reader and for europium after 1:10.000 dilution in DELFIA Enhancement Solution (Perkin-Elmer) by time-resolved fluorescence (TRF) using a Victor2 multi-label plate reader (Perkin Elmer). The fractions that were positive for both protein and Eu label were pooled and applied to new PD-10 columns and samples collected and assayed for total protein and for europium content by TRF calibrated against a europium standard solution (Perkin-Elmer) to calculate the fluor: protein ratio. […] After incubating the sealed plates for 1 hr at 37° C. to allow binding to reach equilibrium, 2 μL samples were transferred from each well into a fresh well containing DELFIA Enhancement Solution (100 μL/well; Perkin-Elmer) for the measurement of free (unbound) label. Enhancement Solution (100 μL/well) was added to the emptied wells for the measurement of bound label. The plate was shaken (Titer Plate Shaker speed setting of 5 for 5 minutes at room temperature) and time-resolved fluorescent (TRF) intensities were read using a Victor2 multi-label plate reader (Perkin-Elmer Wallac, Boston, Mas.).

[5] = target: T2, TMC-2206; assay: fusion protein competing Eu-TMC-2206 off α2β1-coated plate
T2 construct: murine IgG1/κ secreted by hybridoma BHA2.1; labelled with Eu-N1-ITC where used as tracer; also called BHA2.1
Protocol: After incubating the sealed plates for 1 hr at 37° C. to allow binding to reach equilibrium, 2 μL samples were transferred from each well into a fresh well containing DELFIA Enhancement Solution (100 μL/well; Perkin-Elmer) for the measurement of free (unbound) label. Enhancement Solution (100 μL/well) was added to the emptied wells for the measurement of bound label. The plate was shaken (Titer Plate Shaker speed setting of 5 for 5 minutes at room temperature) and time-resolved fluorescent (TRF) intensities were read using a Victor2 multi-label plate reader (Perkin-Elmer Wallac, Boston, Mas.).
The fusion proteins were then expressed and purified as described above for the human GST-α2 I domain fusion protein. […] Therefore, these and the primate fusion proteins were further purified by size exclusion chromatography on a Sephadex 75 10/30 (GE-Amersham) column (primate) by FPLC on an Akta-Basic FPLC system (GE-Amersham) to yield a monomeric fraction. […] The Kᵢ assays were performed as described above in Example 2. […] Plates were sealed and coating occurred overnight at 4° C. The next morning, the plates were washed twice with TBS solution and then blocked using 200 μL of the blocking solution described above for 1 hour at room temperature with shaking. After blocking, the blocking solution was removed but the wells were not washed. […]

[6] = target: T2, TMC-2206; assay: as above; remark: listed apart in the source
[7] = target: T3, Humanized TMC-2206 (hIgG4/κ VH12.0/VL10.0Q); assay: fusion protein competing Eu-humanized TMC-2206 off α2β1-coated plates
T3 construct: labelled with Eu or Alexa-488 in some assays
T3 sequence (heavy, as listed by the source, chain 1 of 2): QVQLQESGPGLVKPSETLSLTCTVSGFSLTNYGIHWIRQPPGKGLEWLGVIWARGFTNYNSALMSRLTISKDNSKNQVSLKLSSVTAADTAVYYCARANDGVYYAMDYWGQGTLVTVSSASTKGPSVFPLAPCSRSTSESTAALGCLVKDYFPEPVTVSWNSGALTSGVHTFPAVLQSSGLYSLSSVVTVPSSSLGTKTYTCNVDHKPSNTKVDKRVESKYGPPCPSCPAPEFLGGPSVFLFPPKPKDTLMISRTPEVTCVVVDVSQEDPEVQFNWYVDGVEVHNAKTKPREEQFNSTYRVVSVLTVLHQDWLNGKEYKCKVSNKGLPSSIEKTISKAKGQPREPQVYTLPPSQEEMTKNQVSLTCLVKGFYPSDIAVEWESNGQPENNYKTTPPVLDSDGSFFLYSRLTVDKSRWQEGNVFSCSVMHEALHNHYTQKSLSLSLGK
T3 sequence (light, as listed by the source, chain 2 of 2): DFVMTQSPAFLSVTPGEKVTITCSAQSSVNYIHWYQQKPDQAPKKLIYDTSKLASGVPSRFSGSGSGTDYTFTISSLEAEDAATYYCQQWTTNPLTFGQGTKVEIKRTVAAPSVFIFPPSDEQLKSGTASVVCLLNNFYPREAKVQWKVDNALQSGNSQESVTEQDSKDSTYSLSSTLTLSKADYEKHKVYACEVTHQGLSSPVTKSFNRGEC
Source text: The inhibition curves were fitted with the “one site competition” model using Prism software (GraphPad, Inc.) to obtain IC₅₀ values and to calculate the Kᵢ using the equation of Cheng and Prusoff (1973) and the respective values for KD from above.
The cloning of the human, rhesus macaque, rat, and mouse α2 I domains were described in Example 12. Cynomolgus and additional rhesus monkey α2 I domains were cloned from cDNA derived from total RNA extracted from skin tissue (MediCorp, Inc., Montreal, QC).

[8] = target: T2, TMC-2206; assay: fusion protein competing Eu-TMC-2206 off α2β1-coated plate; remark: listed apart in the source
Protocol: Wells in a 96 well microtiter plate were coated with platelet α2β1-integrin (custom-coated with human platelet α2β1 by GTI Inc., Wis.) and then blocked with nonfat milk. […] After concentration in prewashed MicroSep concentrators (30-kDa cutoff; Pall Life Sciences at 9500 rpm (7000×g) in a JA-20 rotor (Beckman Instruments, Inc.) for 20 minutes at 4° C.), antibodies were adjusted to 4.0 mg/mL with PBS containing a final concentration of 100 mM NaHCO₃, pH 9.3. The mAb/bicarbonate mixture (0.250 mL) was gently mixed into a vial containing 0.2 mg N¹-(p-isothiocyanatobenzyl)-diethylenetriamine-N¹,N²,N³N³-tetraacetic acid chelated with Eu³⁺ (Eu-N1-ITC; Perkin Elmer Life Sciences) and reacted overnight at 4° C. without stirring. Each labeled antibody mixture was applied to a separate PD-10 column (GE Biosciences, Piscataway, N.J.) pre-equilibrated with Running Buffer (50 mM Tris, pH 7.4 and 138 mM NaCl). Fractions (0.5 mL) were collected and assayed for total protein (Bradford reagent; Bio-Rad Laboratories, Hercules, Calif.) using a SpectraMax 384 absorbance plate reader and for europium after 1:10.000 dilution in DELFIA Enhancement Solution (Perkin-Elmer) by time-resolved fluorescence (TRF) using a Victor2 multi-label plate reader (Perkin Elmer). The fractions that were positive for both protein and Eu label were pooled and applied to new PD-10 columns and samples collected and assayed for total protein and for europium content by TRF calibrated against a europium standard solution (Perkin-Elmer) to calculate the fluor: protein ratio.

[9] = target: T2, TMC-2206; assay: ELISA, GST fusion protein on immobilized TMC-2206 (Kd apparent)
Protocol: The fusion proteins were then expressed and purified as described above for the human GST-α2 I domain fusion protein. […] Therefore, these and the primate fusion proteins were further purified by size exclusion chromatography on a Sephadex 75 10/30 (GE-Amersham) column (primate) by FPLC on an Akta-Basic FPLC system (GE-Amersham) to yield a monomeric fraction. […] The Kᵢ assays were performed as described above in Example 2. […] Plates were sealed and coating occurred overnight at 4° C. The next morning, the plates were washed twice with TBS solution and then blocked using 200 μL of the blocking solution described above for 1 hour at room temperature with shaking. After blocking, the blocking solution was removed but the wells were not washed. Instead, a serial dilution of GST fusion protein was made, added to the wells and then incubated for 2 hours at room temperature with shaking. The wells were then aspirated and a TBS washing buffer applied for 5 minutes at room temperature. The washing step was repeated twice more before the secondary antibody was applied. The secondary antibody step consisted of Amersham's HRP-conjugated rabbit anti-GST antibody diluted 1:2000 in blocking buffer. One hundred μL of secondary antibody was added to each well and incubated at room temperature for 1.5 hours with shaking. The wells were again aspirated and washed three times with wash buffer before adding the substrate reaction mixture. One hundred μL of substrate reaction mixture (1:1 dilution of TMB kit) was then added to each well for 6 minutes. The reaction was stopped by adding 100 μL of 0.1M H₂SO₄. The reaction within the wells was then read and quantified by spectrophotometric absorption using the Molecular Dynamics plate reader and associated Softmax software, respectively. Kd values were then estimated from the EC₅₀ values using Prism software (Graphpad, Calif.).

[10] = target: T2, TMC-2206; assay: ELISA, GST fusion protein on immobilized TMC-2206
Protocol: The Kᵢ assays were performed as described above in Example 2. […] Plates were sealed and coating occurred overnight at 4° C. The next morning, the plates were washed twice with TBS solution and then blocked using 200 μL of the blocking solution described above for 1 hour at room temperature with shaking. After blocking, the blocking solution was removed but the wells were not washed. Instead, a serial dilution of GST fusion protein was made, added to the wells and then incubated for 2 hours at room temperature with shaking. The wells were then aspirated and a TBS washing buffer applied for 5 minutes at room temperature. The washing step was repeated twice more before the secondary antibody was applied. The secondary antibody step consisted of Amersham's HRP-conjugated rabbit anti-GST antibody diluted 1:2000 in blocking buffer. One hundred μL of secondary antibody was added to each well and incubated at room temperature for 1.5 hours with shaking. The wells were again aspirated and washed three times with wash buffer before adding the substrate reaction mixture. One hundred μL of substrate reaction mixture (1:1 dilution of TMB kit) was then added to each well for 6 minutes. […] The reaction within the wells was then read and quantified by spectrophotometric absorption using the Molecular Dynamics plate reader and associated Softmax software, respectively. […]

B1: mouse-human chimeric TMC-2206 antibody (wild type chimera) (antibody, human IgG1, V domains shown)
VH: QVQLKESGPGLVAPSQSLSITCTVSGFSLTNYGIHWVRQPPGKGLEWLGVIWARGFTNYNSALMSRLIITKDNSQSQVFLKMNSLQPDDSATYFCARANDGVYYAMDYWGQGTSVTVSS
VL: QFVLTQSPAFLSASPGEKVTMTCSANSSVNYIHWYQQKSGTSPKKWIYDTSKLASGVPVRFSGSGSGTSYSLTISSMETEDAATYYCQQWTTNPLTFGAGTRVELK
notes: murine VH and VL on human IgG1 Fc and human κ constant region; also called wt chimera
- Ki [1]: 0.52 nM
- Ki [2]: 0.27 nM
- EC50, inhibition of adhesion of CHO-α2 cells to collagen Type I [3]: 1.8 nM
- Ki [4]: 0.26 nM

B2: mouse-human chimeric TMC-2206 antibody carrying the two LC mutations of the SalI site (antibody, human IgG1, V domains shown)
VH: B1 VH
VL: B1 VL with E104D, L105I
notes: human IgG1 Fc and human κ constant region; 'L1061' is printed for L106I; also called chimeric form carrying the two LC mutations
- Ki [2]: 0.27 nM

B3: GST-human α2 I domain fusion protein (other)
chain: GSSPDFQLSASFSPATQPCPSLIDVVVVCDESNSIYPWDAVKNFLEKFVQGLDIGPTKTQVGLIQYANNPRVVFNLNTYKTKEEMIVATSQTSQYGGDLTNTFGAIQYARKYAYSAASGGRRSATKVMVVVTDGESHDGSMLKAVIDQCNHDNILRFGIAVLGYLNRNALDTKNLIKEIKAIASIPTERYFFNVSDEAALLEKAGTLGEQIFSIEGTVEFIVTD
notes: the reverse primer ends at ...SIEGTV; also called GST-α2 I domain; hα2I; not shown: glutathione S-transferase tag encoded by vector pGEX-2TK
- Ki [5]: 0.33 nM
- Ki [6]: 0.28 nM
- Ki [7]: 0.57 nM
- Ki [8]: 0.18 nM

B4: GST-hα2 I domain A115T (other)
chain: B3 chain with A117T
notes: same construct as m41; not shown: GST carrier with the pGEX-2TK vector linker at the N end
- Kd [9]: 0.19 nM
- Ki [8]: 0.76 nM

B5: GST-rhesus α2 I domain fusion protein (other)
chain: SPDFQLSASFSPATQPCPSLIDVVVVCDESNSIYPWDAVKNFLEKFVQGLDIGPTKTQVGLIQYANNPRVVFNLNTYKTKEEMIVATSQTSQYGGDLTNTFGAIQYARKYAYSAASGGRRSATKVMVVVTDGESHDGSMLKAVIDQCNHDNILRFGIAVLGYLNRNALDTKNLIKEIKAIASIPTERYFFNVSDEAALLEKAGTLGEQIFSIEGTV
notes: also called rhesus GST-α2 I; not shown: glutathione S-transferase tag encoded by vector pGEX-2TK
- Ki [5]: 4.4 nM
- Ki [7]: 0.4 nM

B6: GST-cynomolgus α2 I domain fusion protein of Example 12 (aspartic acid at position 40) (other)
chain: B5 chain with K40D
notes: also called cynomolgus monkey GST-α2 I; polymorphic cynomolgus I domain; not shown: glutathione S-transferase tag encoded by vector pGEX-2TK
- binding result [10]: no binding (tested: 40 nM)

B7: GST-mouse α2 I domain fusion protein (other)
chain: SPDFQFLTSFSPAVQACPSLVDVVVVCDESNSIYPWEAVKNFLVKFVTGLDIGPKKTQVALIQYANEPRIIFNLNDFETKEDMVQATSETRQHGGDLTNTFRAIEFARDYAYSQTSGGRPGATKVMVVVTDGESHDGSKLKTVIQQCNDDEILRFGIAVLGYLNRNALDTKNLIKEIKAIASTPTERYFFNVSDEAALLEKAGTLGEQIFSIEGTVQGGDNFQMEMSQ
notes: also called murine α2 I-GST fusion protein; not shown: glutathione S-transferase tag encoded by vector pGEX-2TK
- fold shift in affinity [10]: > 1500 fold
